The record followed here is US20170362301A1 (Janssen / Centocor, published 2017).

Assay [1] concerns the target T1, EGFR (form in the assay not stated) (human, UniProt P00533 25-645, limits assumed). In words: ELISA, NEM conjugate 10 nM. (In general: An ELISA detects its analyte on a solid surface through an enzyme-linked reagent.)
The target of assay [2] is T1, EGFR (form in the assay not stated). In words: ELISA, NEM conjugate 500 nM.
Assay [3] has the same target. In words: ELISA, NEM conjugate 100 nM.

B1: P54AR4-83v2 A3C, NEM conjugate (designed binder)
chain: LPCPKNLVVSEVTEDSARLSWDDPWAFYESFLIQYQESEKVGEAIVLTVPGSERSYDLTGLKPGTEYTVSIYGVHNVYKDTNMRGLPLSAIFTT
modifications: NEM on Cys 3
notes: His-tagged
For B1, the “binding ratio vs parent P54AR4-83v2” value in assay [1] was found to be 0.34 ratio; in assay [2], 0.82 ratio; in assay [3], 0.88 ratio.

B2: P54AR4-83v2 A26C, NEM conjugate (designed binder)
chain: LPAPKNLVVSEVTEDSARLSWDDPWCFYESFLIQYQESEKVGEAIVLTVPGSERSYDLTGLKPGTEYTVSIYGVHNVYKDTNMRGLPLSAIFTT
modifications: NEM on Cys 26
notes: His-tagged
In the case of B2, the figures for the “binding ratio vs parent P54AR4-83v2” value in assay [1], in assay [2] and in assay [3] were 0.95 ratio, 0.95 ratio and 1.06 ratio, respectively.

B3: P54AR4-83v2 F27C, NEM conjugate (designed binder)
chain: LPAPKNLVVSEVTEDSARLSWDDPWACYESFLIQYQESEKVGEAIVLTVPGSERSYDLTGLKPGTEYTVSIYGVHNVYKDTNMRGLPLSAIFTT
modifications: NEM on Cys 27
notes: His-tagged
As for B3, the “binding ratio vs parent P54AR4-83v2” value is 0 ratio in assay [1], 0.23 ratio in assay [2] and 0.07 ratio in assay [3].

B4: P54AR4-83v2 G42C, NEM conjugate (designed binder)
chain: LPAPKNLVVSEVTEDSARLSWDDPWAFYESFLIQYQESEKVCEAIVLTVPGSERSYDLTGLKPGTEYTVSIYGVHNVYKDTNMRGLPLSAIFTT
modifications: NEM on Cys 42
notes: His-tagged
In the case of B4, the “binding ratio vs parent P54AR4-83v2” value amounted to 0.84 ratio in assay [1], 0.9 ratio in assay [2] and 0.99 ratio in assay [3].

B5: P54AR4-83v2 E39C, NEM conjugate (designed binder)
chain: LPAPKNLVVSEVTEDSARLSWDDPWAFYESFLIQYQESCKVGEAIVLTVPGSERSYDLTGLKPGTEYTVSIYGVHNVYKDTNMRGLPLSAIFTT
modifications: NEM on Cys 39
notes: His-tagged
Regarding B5, the “binding ratio vs parent P54AR4-83v2” value in assay [1] worked out at 0.9 ratio; in assay [2], 0.9 ratio; in assay [3] it was 1 ratio.

B6: P54AR4-83v2 E11C, NEM conjugate (designed binder)
chain: LPAPKNLVVSCVTEDSARLSWDDPWAFYESFLIQYQESEKVGEAIVLTVPGSERSYDLTGLKPGTEYTVSIYGVHNVYKDTNMRGLPLSAIFTT
modifications: NEM on Cys 11
notes: His-tagged
For B6, the entries for the “binding ratio vs parent P54AR4-83v2” value in assay [1], in assay [2] and in assay [3] were 0.9 ratio, 0.95 ratio and 1.08 ratio, respectively.

B7: P54AR4-83v2 D22C, NEM conjugate (designed binder)
chain: LPAPKNLVVSEVTEDSARLSWCDPWAFYESFLIQYQESEKVGEAIVLTVPGSERSYDLTGLKPGTEYTVSIYGVHNVYKDTNMRGLPLSAIFTT
modifications: NEM on Cys 22
notes: His-tagged
Take B7: the “binding ratio vs parent P54AR4-83v2” value in assay [1] was found to be 0.84 ratio; in assay [2], 0.9 ratio; in assay [3], 1.02 ratio.

B8: P54AR4-83v2 E14C, NEM conjugate (designed binder)
chain: LPAPKNLVVSEVTCDSARLSWDDPWAFYESFLIQYQESEKVGEAIVLTVPGSERSYDLTGLKPGTEYTVSIYGVHNVYKDTNMRGLPLSAIFTT
modifications: NEM on Cys 14
notes: His-tagged
With B8, the “binding ratio vs parent P54AR4-83v2” value in assay [1] came to 1.11 ratio; in assay [2], 1.15 ratio; in assay [3], 1.27 ratio.

B9: P54AR4-83v2 G60C, NEM conjugate (designed binder)
chain: LPAPKNLVVSEVTEDSARLSWDDPWAFYESFLIQYQESEKVGEAIVLTVPGSERSYDLTCLKPGTEYTVSIYGVHNVYKDTNMRGLPLSAIFTT
modifications: NEM on Cys 60
notes: His-tagged
As for B9, the “binding ratio vs parent P54AR4-83v2” value in assay [1] worked out at 0.86 ratio; in assay [2], 0.93 ratio; in assay [3], 1.02 ratio.

B10: P54AR4-83v2 E43C, NEM conjugate (designed binder)
chain: LPAPKNLVVSEVTEDSARLSWDDPWAFYESFLIQYQESEKVGCAIVLTVPGSERSYDLTGLKPGTEYTVSIYGVHNVYKDTNMRGLPLSAIFTT
modifications: NEM on Cys 43
notes: His-tagged
B10: the “binding ratio vs parent P54AR4-83v2” value was 0.68 ratio in assay [1], 0.92 ratio in assay [2] and 1.04 ratio in assay [3].

B11: P54AR4-83v2 F31C, NEM conjugate (designed binder)
chain: LPAPKNLVVSEVTEDSARLSWDDPWAFYESCLIQYQESEKVGEAIVLTVPGSERSYDLTGLKPGTEYTVSIYGVHNVYKDTNMRGLPLSAIFTT
modifications: NEM on Cys 31
notes: His-tagged
Regarding B11, the entries for the “binding ratio vs parent P54AR4-83v2” value in assay [1], in assay [2] and in assay [3] were 0.04 ratio, 0.62 ratio and 0.34 ratio, respectively.

B12: P54AR4-83v2 E53C, NEM conjugate (designed binder)
chain: LPAPKNLVVSEVTEDSARLSWDDPWAFYESFLIQYQESEKVGEAIVLTVPGSCRSYDLTGLKPGTEYTVSIYGVHNVYKDTNMRGLPLSAIFTT
modifications: NEM on Cys 53
notes: His-tagged
With B12, the results for the “binding ratio vs parent P54AR4-83v2” value in assay [1], in assay [2] and in assay [3] were 0.91 ratio, 0.91 ratio and 1.02 ratio, respectively.

B13: P54AR4-83v2 D15C, NEM conjugate (designed binder)
chain: LPAPKNLVVSEVTECSARLSWDDPWAFYESFLIQYQESEKVGEAIVLTVPGSERSYDLTGLKPGTEYTVSIYGVHNVYKDTNMRGLPLSAIFTT
modifications: NEM on Cys 15
notes: His-tagged
For the molecule B13, the entries for the “binding ratio vs parent P54AR4-83v2” value in assay [1], in assay [2] and in assay [3] were 0.98 ratio, 0.97 ratio and 1.09 ratio, respectively.

B14: P54AR4-83v2 D80C, NEM conjugate (designed binder)
chain: LPAPKNLVVSEVTEDSARLSWDDPWAFYESFLIQYQESEKVGEAIVLTVPGSERSYDLTGLKPGTEYTVSIYGVHNVYKCTNMRGLPLSAIFTT
modifications: NEM on Cys 80
notes: His-tagged
With B14, the figures for the “binding ratio vs parent P54AR4-83v2” value in assay [1], in assay [2] and in assay [3] were 0.7 ratio, 0.91 ratio and 0.97 ratio, respectively.

B15: P54AR4-83v2 G64C, NEM conjugate (designed binder)
chain: LPAPKNLVVSEVTEDSARLSWDDPWAFYESFLIQYQESEKVGEAIVLTVPGSERSYDLTGLKPCTEYTVSIYGVHNVYKDTNMRGLPLSAIFTT
modifications: NEM on Cys 64
notes: His-tagged
B15: the “binding ratio vs parent P54AR4-83v2” value in assay [1] is 1.28 ratio; in assay [2] it was 1.36 ratio; in assay [3], 1.42 ratio.

B16: P54AR4-83v2 A90C, NEM conjugate (designed binder)
chain: LPAPKNLVVSEVTEDSARLSWDDPWAFYESFLIQYQESEKVGEAIVLTVPGSERSYDLTGLKPGTEYTVSIYGVHNVYKDTNMRGLPLSCIFTT
modifications: NEM on Cys 90
notes: His-tagged
B16: the “binding ratio vs parent P54AR4-83v2” value in assay [1] is 0.94 ratio; in assay [2], 1.01 ratio; in assay [3] it was 1.05 ratio.

B17: P54AR4-83v2 E29C, NEM conjugate (designed binder)
chain: LPAPKNLVVSEVTEDSARLSWDDPWAFYCSFLIQYQESEKVGEAIVLTVPGSERSYDLTGLKPGTEYTVSIYGVHNVYKDTNMRGLPLSAIFTT
modifications: NEM on Cys 29
notes: His-tagged
Turning to B17, the “binding ratio vs parent P54AR4-83v2” value in assay [1] was determined as 0.89 ratio; in assay [2] it was 0.93 ratio; in assay [3], 1.07 ratio.

B18: P54AR4-83v2 D23C, NEM conjugate (designed binder)
chain: LPAPKNLVVSEVTEDSARLSWDCPWAFYESFLIQYQESEKVGEAIVLTVPGSERSYDLTGLKPGTEYTVSIYGVHNVYKDTNMRGLPLSAIFTT
modifications: NEM on Cys 23
notes: His-tagged
Turning to B18, the figures for the “binding ratio vs parent P54AR4-83v2” value in assay [1], in assay [2] and in assay [3] were 0.02 ratio, 0.4 ratio and 0.2 ratio, respectively.

B19: P54AR4-83v2 G51C, NEM conjugate (designed binder)
chain: LPAPKNLVVSEVTEDSARLSWDDPWAFYESFLIQYQESEKVGEAIVLTVPCSERSYDLTGLKPGTEYTVSIYGVHNVYKDTNMRGLPLSAIFTT
modifications: NEM on Cys 51
notes: His-tagged
Regarding B19, the “binding ratio vs parent P54AR4-83v2” value came out at 0.88 ratio in assay [1], 0.92 ratio in assay [2] and 1.03 ratio in assay [3].
